“And” between values parts separate entries of the source, which are not always exact repeats. Equal entries are not always repeated. Where two headings read alike, the source gives them in different places. One block for each molecule: values may come before it.
T1: Truncated AbrB, N-terminal DNA-binding domain (AbrBN) from B. subtilis 168, His6-tagged (B. subtilis 168)
T1 sequence (P08874 whole entry, looked up): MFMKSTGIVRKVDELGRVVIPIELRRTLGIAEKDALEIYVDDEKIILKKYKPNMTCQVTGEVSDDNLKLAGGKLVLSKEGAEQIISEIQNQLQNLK

B1: AbbA from B. amyloliquefaciens FZB45 as run on analytical FPLC (natural protein, UniProt A0A9P1JGI2 1-63, looked up)
chain: MSLIGERFTEEEQKLLLNILINHEYAIELLTSEINDIEAGSKSVDGTTYKKLVTLYDRFRNEN
B2: AbrB from B. subtilis 168, full-length, His6-tagged (natural protein, UniProt P08874 1-96, looked up)
chain: T1 sequence (P08874 whole entry, looked up)
B3: AbrB antirepressor AbbA from B. subtilis 168, His6-tagged (natural protein, UniProt O31697 1-65, looked up)
chain: MRMSLIGERFTEEEQKLLLNILINHEYAIELLSSEINDIETGTKNVDGTTYKKLVTLYDRFRFEN
B4: AbbA from B. subtilis 168 as run on analytical FPLC (natural protein, UniProt O31697 1-65, looked up)
chain: B3 chain
B5: Full-length AbrB as measured by SAXS (natural protein)
chain: MKSTGIVRKVDELGRVVIPIELRRTLGIAEKDALEIYVDDEKIILKKYKPNMTCQVTGEVSDDNLKLAGGKLVLSKEGAEQIISEIQNQLQNLK

How the values were obtained:
[1] = target: AbrB from B. amyloliquefaciens FZB45, full-length, His6-tagged (B. amyloliquefaciens FZB45); assay: SEC
full-length AbrB = assay: SPR
[2] = target: AbrB from B. amyloliquefaciens FZB45, full-length, His6-tagged (B. amyloliquefaciens FZB45); assay: SPR
[3] = target: AbrB from B. amyloliquefaciens FZB45, full-length, His6-tagged (B. amyloliquefaciens FZB45); assay: SPR; remark: listed apart in the source
[4] = target: AbrB from B. amyloliquefaciens FZB45, full-length, His6-tagged (B. amyloliquefaciens FZB45); assay: native gel or EMSA
[5] = target: AbrB from B. amyloliquefaciens FZB45, full-length, His6-tagged (B. amyloliquefaciens FZB45); assay: SPR; remark: listed apart in the source
SEC = target: the molecule itself; assay: SEC
[6] = target: B2; assay: native gel or EMSA
[7] = target: T1, Truncated AbrB, N-terminal DNA-binding domain (AbrBN) from B. subtilis 168, His6-tagged (B. subtilis 168); assay: SPR
[8] = target: B2; assay: SPR
SAXS = target: the molecule itself; assay: SAXS

stoichiometry N [1]: 4
Molecule: AbrB from B. amyloliquefaciens FZB45, full-length, His6-tagged (natural protein)

ka1 (two-state reaction model, first reaction) (full-length AbrB): 132000 M⁻¹ s⁻¹ and 158000 M⁻¹ s⁻¹ | kd1 (two-state reaction model, first reaction) (full-length AbrB): 0.0955 s⁻¹ and 0.157 s⁻¹
Molecule: AbbA

Molecule: B1
Kd [2]: 1140 nM and 1240 nM | Kd [3]: 31.4 nM | stoichiometry N (AbbA dimers per AbrB tetramer) [4]: 2 | KD1 (two-state reaction model, first reaction) [5]: 791 nM | Kd [5]: 68.9 nM | stoichiometry N (SEC): 2

Molecule: B2
stoichiometry N (SEC): 4

Molecule: B3
stoichiometry N [6]: ~2 AbbA dimers per AbrB tetramer | Kd [7]: 3700 nM | Kd [8]: 448 nM

Molecule: B4
stoichiometry N (SEC): 2

Molecule: B5
stoichiometry N (SAXS): 4
